Laboratory results from patent publication US20250075002A1.

Molecular target: Human MUC1 (full length), on cells (human) (UniProt P15941)
Experiment: cell-based or functional assay

Chain of Human MUC1 (full length), on cells (human) (P15941 24-1255 limits assumed): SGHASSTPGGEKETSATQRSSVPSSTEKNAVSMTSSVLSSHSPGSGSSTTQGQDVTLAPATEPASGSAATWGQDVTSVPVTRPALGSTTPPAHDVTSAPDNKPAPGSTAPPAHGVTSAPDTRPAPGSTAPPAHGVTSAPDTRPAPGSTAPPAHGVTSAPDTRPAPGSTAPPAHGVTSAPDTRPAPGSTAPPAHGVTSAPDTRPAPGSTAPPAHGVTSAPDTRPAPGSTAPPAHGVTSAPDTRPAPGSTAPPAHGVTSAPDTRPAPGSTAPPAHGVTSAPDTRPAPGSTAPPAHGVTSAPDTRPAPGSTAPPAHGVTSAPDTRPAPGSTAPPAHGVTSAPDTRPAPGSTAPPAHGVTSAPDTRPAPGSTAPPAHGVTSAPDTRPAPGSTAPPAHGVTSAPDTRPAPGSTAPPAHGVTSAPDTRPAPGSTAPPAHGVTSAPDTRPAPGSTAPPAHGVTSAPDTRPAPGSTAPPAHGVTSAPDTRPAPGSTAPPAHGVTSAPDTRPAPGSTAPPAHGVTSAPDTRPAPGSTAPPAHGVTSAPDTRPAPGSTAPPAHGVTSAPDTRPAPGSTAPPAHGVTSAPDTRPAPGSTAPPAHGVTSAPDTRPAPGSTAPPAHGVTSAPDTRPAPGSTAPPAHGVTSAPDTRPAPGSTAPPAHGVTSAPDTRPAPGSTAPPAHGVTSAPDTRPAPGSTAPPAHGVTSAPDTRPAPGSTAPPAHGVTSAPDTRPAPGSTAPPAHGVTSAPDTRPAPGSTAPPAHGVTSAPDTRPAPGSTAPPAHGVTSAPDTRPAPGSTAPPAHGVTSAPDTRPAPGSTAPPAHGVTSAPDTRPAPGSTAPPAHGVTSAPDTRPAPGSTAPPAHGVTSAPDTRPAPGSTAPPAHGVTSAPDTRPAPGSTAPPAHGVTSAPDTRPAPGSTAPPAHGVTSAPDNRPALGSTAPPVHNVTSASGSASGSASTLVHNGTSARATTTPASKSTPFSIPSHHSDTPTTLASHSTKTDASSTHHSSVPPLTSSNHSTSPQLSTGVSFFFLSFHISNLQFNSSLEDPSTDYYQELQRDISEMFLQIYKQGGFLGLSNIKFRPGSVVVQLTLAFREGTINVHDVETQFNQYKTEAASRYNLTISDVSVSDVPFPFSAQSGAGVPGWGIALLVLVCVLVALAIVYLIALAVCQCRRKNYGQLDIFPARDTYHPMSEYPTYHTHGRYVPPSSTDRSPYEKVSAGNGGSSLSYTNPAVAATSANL

B1: huBG219P-E39-AF (antibody, human IgG1, V domains shown)
VH: EVQLLESGGGLVQPGGSLRLSCAASGFTFNDYIMSWVRQAPGKGLEWVATVSSGGDNTYYPDSVKGRFTISRDNSKNTLYLQMNSLRAEDTAVYYCTRYGGLGAMDYWGQGTLVTVSS
VL: DIQMTQSPSSLSASVGDRVTITCRASGNIHNYLTWYQQKPGKAPKLLIYNAKTLASGVPSRFSGSGSGTDFTLTISSLQPEDFATYYCQHFWSVPYTFGQGTKLEIK
modifications: afucosylated Fc glycan (-AF; expressed with 2F-peracetyl-fucose)
ADCC EC50, HCC827 (MUC1 medium), NK92mi/CD16A F158 effectors, w/o huIgG: 11.5 nM | ADCC EC50, T-47D (MUC1 high), NK92mi/CD16A F158 effectors, w/o huIgG: 1.3 nM | ADCC EC50, T-47D (MUC1 high), NK92mi/CD16A V158 effectors, w/o huIgG: 0.603 nM | ADCC Emax, H358 (MUC1 low), NK92mi/CD16A F158 effectors, 10 mg/ml huIgG1: 10.7% | ADCC Emax, H358 (MUC1 low), NK92mi/CD16A F158 effectors, w/o huIgG: 10.2% | ADCC Emax, H358 (MUC1 low), NK92mi/CD16A V158 effectors, 10 mg/ml huIgG1: 15.5% | ADCC Emax, H358 (MUC1 low), NK92mi/CD16A V158 effectors, w/o huIgG: 15.6% | ADCC Emax, HCC827 (MUC1 medium), NK92mi/CD16A F158 effectors, 10 mg/ml huIgG1: 31% | ADCC Emax, HCC827 (MUC1 medium), NK92mi/CD16A F158 effectors, w/o huIgG: 36.8% | ADCC Emax, HCC827 (MUC1 medium), NK92mi/CD16A V158 effectors, 10 mg/ml huIgG1: 26.7% | ADCC Emax, HCC827 (MUC1 medium), NK92mi/CD16A V158 effectors, w/o huIgG: 25% | ADCC Emax, T-47D (MUC1 high), NK92mi/CD16A F158 effectors, 10 mg/ml huIgG1: 25.7% | ADCC Emax, T-47D (MUC1 high), NK92mi/CD16A F158 effectors, w/o huIgG: 48.2% | ADCC Emax, T-47D (MUC1 high), NK92mi/CD16A V158 effectors, 10 mg/ml huIgG1: 19.2% | ADCC Emax, T-47D (MUC1 high), NK92mi/CD16A V158 effectors, w/o huIgG: 33.6% | Cell lysis activity EC50, T-47D (MUC1 high) in human whole blood: 1.25 nM | Cell lysis activity Emax, H358 (MUC1 low) in human whole blood: 8.6% | Cell lysis activity Emax, HCC827 (MUC1 medium) in human whole blood: 14.1% | Cell lysis activity Emax, T-47D (MUC1 high) in human whole blood: 20.2% | Phagocytosis (ADCP) EC50, T-47D, human M2 macrophages, w/o huIgG: 0.05 nM | Phagocytosis (ADCP) Emax, T-47D, human M2 macrophages, 10 mg/ml huIgG1: 17.6% | Phagocytosis (ADCP) Emax, T-47D, human M2 macrophages, w/o huIgG: 56.4%

B2: MUC1 5F3-hFc-AF (antibody, V domains shown)
VH: DVQVQESGPDLVKPSQSLSLTCTVTGHSITRGSSWHWIRQFPGNKLEWMGYIHYGGGTSYNPSLKSRISITRDTSKNQFFLQLNSVTTEDTATFFCARYSYDITYRWFFDVWGAGTTVIVSS
VL: DILLTQSPAILSVSPGERVSFSCRASQNIGTSIHWYQQRKNGSPRLLIKYASESISGIPSRFSGSGSGTDFTLSINSVESEDMADYYCQQNNNWPLTFGAGTKLELK
Cell lysis activity EC50, T-47D/nanoluc in human whole blood: 0.464 nM | Cell lysis activity Emax, T-47D/nanoluc in human whole blood: 7.78%
